This is an account of results in a protein production outcome set (Wang et al. 2014).

This data set can be described thus: label from the status in PepcDB records.
Take “MAPIFRNYRFAIGAFAVIMLILLIKTSSIGPPSIARTVTPNASIPKTPEDISILPVNDEPGYLQDSKTEQNYPELADAVKSQTSQTCSEEHKYVIMIDAGSTGSRVHIYKFDVCTSPPTLLDEKFDMLEPGLSSFDTDSVGAANSLDPLLKVAMNYVPIKARSCTPVAVKATAGLRLLGDAKSSKILSAVRDHLEKDYPFPVVEGDGVSIMGGDEEGVFAWITTNYLLGNIGANGPKLPTAAVFDLGGGSTQIVFEPTFPINEKMVDGEHKFDLKFGDENYTLYQFSHLGYGLKEGRNKVNSVLVENALKDGKILKGDNTKTHQLSSPCLPPKVNATNEKVTLESKETYTIDFIGPDEPSGAQCRFLTDEILNKDAQCQSPPCSFNGVHQPSLVRTFKESNDIYIFSYFYDRTRPLGMPLSFTLNELNDLARIVCKGEETWNSVFSGIAGSLDELESDSHFCLDLSFQVSLLHTGYDIPLQRELRTGKKIANKEIGWCLGASLPLLKADNWKCKIQSA”: the protein production result is on record as “failed”.
The same measure for “MGRRLVPLTLDNLPDLPKRCRACVFWELDPVSGEAAVKAGTSALEKEAWISAVLLDWGSCGRVVYVDDVPVGFVLYAPPAYVPRSTAFPTSPVSPDAVQLMTAFIMPGYQGQGLGRVMVQTVAKDLLRRGFKAIEAFGDAHWK”: “failed”; for “MMEKYNKFDLLWLLVPLSGLIVMGLMAVYSATNGSTESVPLFYKQLSWAVTGAIAASIIYFMDYRVVKDNAYFMYAAGIILLIAVLVFGKKVAGATSWVRFGMFSFQPSELTKMFTIIAMARFLSDDQTDIGNMMDLGKALAIALVPAGLIMLQPDMGTTLTCLSFIVPMIVLAGFDLYYILLGVVPVALMLSGFFNLTILATIAVLSMVMFFLLRKKFYLHQFLVTGGGLLGGLLTWKFTSVILKPHQIKRIQIFLDPTADPRGAGYNALQAKIAIASGGIFGKGFLHGTQTQLRYIPAQWTDFIFCVIAEELGFLGSTLLLLLFAALVLRLVWMVGAIKNRFVELLLAGYASLLLTHVVINIGMTIGVMPVIGVPLPFISYGGSSLVANMMMVGLAMNFSKNRRHIGY”: “failed”; for “MFAIRRRCRPRPGQFQHGWSGLPTHTVPQAGSIAPIGRVRPSSVGNVRPTPECNVLPSFGRSSTNPSFPMEPIEDLDVLAEDEVRQREADGEVDEDLDRVKHGYDATAGDKQVYIETYGCQMNVNDSGIVASVLEESGYGLTRDQAAADVVLLNTCAIRENAERKIRARLSMLRSEKEKRDGELMLGVLGCMAERLREKLLEQEDLVDVVVGPDAYRDLPQLLYEADATGQAAVNVELSKQETYEDIQPVRYDSNGVSAYVSIMRGCDNMCTFCVVPFTRGREESRPVTTILSEVARLAEEGYKEVTLLGQNVNSYHYTDADGTSVSFAELVDRVSRVSPEMRVRYSTSHPKDCTDDLLKVHRDRPNVCNYIHLPVQHGNTEVLDRMRRTYTREEYLALTERAKELCPGVSLSTDLIAGFCGETEAQHEDTLSLMEEVRYDHAYMFKYSERPQTYAARKYEDDVPEDTKQRRLEEIIELQNQHAKESNEAEVGRVHTVLVEGPSKKSDAQFFGRTDTNKGVVFDREDYEKGDYVRVRIEDCTSSTLLGTAIEKTTLEAAARTDSITTSPAVA”: “failed”.
For the sequence “MITKFPPQWQEKLDQVAFTHLTPIQEQAFQPIVDGKNFLGISPTGTGKTLAYVFPNLLALTPKKSQQLLILAPNTELAGQIFEVTKDWAQPLGLTAQLFISGTSQKRQIERLKKGPEILIGTPGRIFELIKLKKIKMMSVNTIVLDEYDELLGDSQYDFVQKISHYVPRDHQMVYMSATNKVDQTSLAPNTFCIDLSEQTNDAIQHFYLMVDKRERTDLLRKFTNIPHFRALVFFNSLSDLGATEERLQYNGAAAVSLASDINVKFRKTILEKFKSHQLSLLLATDLVARGIDIDNLDYVIHFDVARDKENYTHRAGRTGRMGKSGIVITFVSHPEDLKKLKKFAKVSEISLKNQQLHFIN”, the protein production entry is recorded as “failed”.
The same measure for “MSLDDIINNMIDKLKLLVHFDRISFLLLANETLKLSHVYPKGSHSLDIGSTIPKEQSLYWSALDQRQTIFRSLTDTQDNFYEKQYLAILDLKSILVIPIYSKNKRVGVLSIGRKQQIDWSLDDLAFLEQLTDHLAVSIENVELYGQVLRSKQEWEDTFKAVD”: “not failed”; for “MKKDSTIAFTGGRILTMDSEQKYAEAVVIRGDRIAAVGGTYILKSFPDAEIRDLKNRYLLPAFIDSHNHLSSFGCLEHHHHHH”: “not failed”; for “MQTQFQFINDCLIENQPLWRFEPFQSSIQPSLPWQETHPQLCQWLESLSPSQIETLKADPDLALDEISVFLPDLPSLLRHTQLESMALDGLALERGLDSGIPGRKLEQITAMGEAAIQSHQGEEWLEWCSGKGYLGRILTTQTNQPVTSFEYQQALCDSGQQAANEHHWKMTFIQGDAFDPQTKAVFKPTQHAVALHACGDLHVRLMEYGSEAGIAAMTISPCCYHLIQSETYQALSQSVRASELILSKHELRIPLQQTVTGGERVRRHRQQEMVFRLGFDLLTREILGVDEYQPVPSIRKSQLSDGFEALCLWVAKEKGIEINQAIDFAEFEKRAIKRFWHMERMSLVQLVFQRPLEIWLALDKVLYLEERGYRVRLAEFCPKSVTPRNILICAYKN”: “failed”.
Turning to “MQPETSAQYQHRFSQAIRGGEAADGLPQDRLNVYIRLIRNNIHSFIDRCYTETRQYFDSKEWSRLKEGFVRDARAQTPYFQEIPGEFLQYCQSLPLSDGILALMDFEYTQLLAEVAQIPDIPDIHYSNDSKYTPSPAAFIRQYRYDVTHDLQEAETALLIWRNAEDDVMYQTLDGFDMMLLEIMGSSALSFDTLAQTLVEFMPKADNWKNILLGKWSGWIEQRIIIPSLSAISENMEGNSPSQNHLSA”, the protein production result is recorded as “not failed”.
In the case of “MECRECTNRNKLDFEFTMAFQPIVNLETQTIFAHEALVRGLNNESAQAIFQHINDSNRYLFDQSCRTTAIRLAAELHIPCFLSINFLPNAVYEPERCIRTTLEAAETYGFPIEQIIFEITESEQITDLVHLRKIVEYYRARGFKTAIDDFGAGYAGLNLLSEIQTDLIKLDMALIRGIDQDKVRQAIVKGVLQVAGELSSLVIAEGIETQAELTTLQGLGINLFQGFYFAKPTFQSLAQIPSDRFVNVA” it was “failed”.
For “MNLAYETQSIAERREQLREEGKIELPLNVDTRKYLLSFIRYRDVLISLPLLIAGIVALYIIHRTGIGINSQNVIVCFAPWATFLLLLTIQHPDRKNISFFEHRIVWRIKYNNRQKLFVYTKGDLMGNKKEKDVREQLGISNIYSDCYETTDKRLVKVIKVSSINLSLLNNKEKRMIFQAYETFLNDLPKNLTLQISQIAQPVNLKNYFLFIQEKTSREQDMAKKLLAKGYLDFIDDIQKSKNMVSRNRYVIISKPFTAQNRESVLEELDRQAKILVSQIENMLGGRFQLKAEILNNEELFHLIYTCVDYENAQVNAEIKTSTFPITLGKETYIEMKKRWEKEVTEKII”, the protein production entry is “failed”.
The same measure for “MRTLLFLHLLGAAIWVGGHLVLALGILPGALRRRDPQAIRAFEQVYERIGIPALLLQVVSGLWLASLWLPFDHWFGATPVARALQLKLLLLAATAALGVHARLRLIPNLDAESLPKLGWHIAAITLVGLGFVAVGQSFRFGGAF”: “failed”; for “MIKVWLQQGRGLWLALFLGLLSPALVHAEEAPPGLVKVPLDRRVIDLTATLDSATQERMVHKLEALEQRRGAQIAVMLVPNLGQQSIEALSNQLFRAWKLGRKGVDDGILLLVAKNDHKVRIEVGYGLEPVVTDLLAGQIIAQDLTPAFRQGDFAGGIDRALDDLILLVDGGSLPEPAGLAVPLEAYALLLAFVFGSVAGVMLAAGWNWRRVLGGAVVLMAVLVGAVGGHEWLAQLFLVPLCMLIGGATFAGLWQARRVFYGVLGLLLYIGLLTLVSQYLGRLTFLYGLAWPAGVLLVLGGHWLLYWMMRNSWRKSPRGFLWRFAVLLTLVLLMGLGVDAWQAAQRWLRVVPFAYFLSFILFAGGSGFRWSSGGGSSSGGRSSSGGGFSGGGGSSGGGGASGSW”: “failed”.
On to “MNRHISFERLHNFRDLGGYTTADGRVVRWGRLFRSDSLGKLTGEEWERFLALGIGTVIDLRYPWEIDAKGRVPEHPAFTYHNLSIEHRPYDQAGLGPDVETGPFLAEKYMEVAHDGVKELRQVVEVIAAVATSTDESVVFHCASGKDRTGLVAALVLALLGVPESQIVEDFTLTELATERLLADWRADHPGQEPTWPGYGRAPADVMRLFLDALTHQHGSMADYARDLLRIDEGLIAALRRNLLEPAAEPELTFRRADHRDLPELVRLRDSAARWQIARGIDQWKPGQLGEDHFRARLADGEIWIATLGPTGPTAGAWELWWDDPAAWGPQPPSAGYVHRLMTDRRTAPPGTGRLMLAEAERRIAETGRTLCRLDCLASNPRLRQYYETAGYTVVGEQSSKDGGLGNTYAVTLLEKTVPEALTPRSTKPAR”, for which the protein production result is “failed”.
